22 molecules from patent US20230142800A1 (COMMISSARIAT A L ENERGIE ATOMIQUE ET AUX ENERGIES …, published 2023) can be followed below.

B1: CDRH3 library mutant LYYCAKTKYLPS (Fab, V domains shown)
VH: EVQLVESGGGLVQPGRSLRLSCAASGFTFDDYAMHWVRQAPGKGLEWVSAITWNSGHIDYADSVEGRFTISRDNAKNSLYLQMNSLRAEDTALYYCAKTKYLPSASSLDYWGQGTLVTVSS
VL: not shown
B2: CDRH3 library mutant LYYCAKTTYLPS (Fab, V domains shown)
VH: B1 VH with K100T
VL: not shown
B3: CDRH3 library mutant LYYCAKTNYLPT (Fab, V domains shown)
VH: B1 VH with K100N, S104T
VL: not shown
B4: CDRH3 library mutant LYYCAKVKYLPT (Fab, V domains shown)
VH: B1 VH with T99V, S104T
VL: not shown
B5: CDRH3 library mutant VYYCAKTHYLPT (Fab, V domains shown)
VH: B1 VH with L93V, K100H, S104T
VL: not shown
B6: CDRH3 library mutant LYYCAKVKYLPS (Fab, V domains shown)
VH: B1 VH with T99V
VL: not shown
B7: CDRH3 library mutant VYYCAKTKYLPT (Fab, V domains shown)
VH: B1 VH with L93V, S104T
VL: not shown
B8: CDRH3 library mutant VYYCAKAKYLPT (Fab, V domains shown)
VH: B1 VH with L93V, T99A, S104T
VL: not shown
B9: CDRH3 library mutant LYYCAKTTYLPT (Fab, V domains shown)
VH: B1 VH with K100T, S104T
VL: not shown
B10: CDRH3 library mutant VYYCAKAHHLPT (Fab, V domains shown)
VH: B1 VH with L93V, T99A, K100H, Y101H, S104T
VL: not shown
B11: CDRH3 library mutant LYYCAKTRYLPT (Fab, V domains shown)
VH: B1 VH with K100R, S104T
VL: not shown
B12: CDRH3 library mutant LYYCAKVKYTPT (Fab, V domains shown)
VH: B1 VH with T99V, L102T, S104T
VL: not shown
B13: CDRH3 library mutant VYYCAKTGYLPT (Fab, V domains shown)
VH: B1 VH with L93V, K100G, S104T
VL: not shown
B14: CDRH3 library mutant VYYCAKTRYTPT (Fab, V domains shown)
VH: B1 VH with L93V, K100R, L102T, S104T
VL: not shown
B15: CDRH3 library mutant VYYCAKTTYLPS (Fab, V domains shown)
VH: B1 VH with L93V, K100T
VL: not shown
B16: CDRH3 library mutant VYYCAKTNYLPT (Fab, V domains shown)
VH: B1 VH with L93V, K100N, S104T
VL: not shown
B17: CDRH3 library mutant VYYCAKSKYLPT (Fab, V domains shown)
VH: B1 VH with L93V, T99S, S104T
VL: not shown
B18: CDRH3 library mutant LYYCAKTKYLPT (Fab, V domains shown)
VH: B1 VH with S104T
VL: not shown
B19: CDRH3 library mutant VYYCAKTSYLPS (Fab, V domains shown)
VH: B1 VH with L93V, K100S
VL: not shown
B20: CDRH3 library mutant VYYCAKTKYLPS (Fab, V domains shown)
VH: B1 VH with L93V
VL: not shown
B21: CDRH3 library mutant VYYCAKTRYLPT (Fab, V domains shown)
VH: B1 VH with L93V, K100R, S104T
VL: not shown
B22: CDRH3 library mutant LYYCAKTRYLPS (Fab, V domains shown)
VH: B1 VH with K100R
VL: not shown

Positions count from the first letter of the chain named.

The target in this test is T1, biotinylated TNF alpha (human (definition in paragraph 32)); the …, UniProt P01375 77-233, biotinylated (site not stated)).
T1 construct: Used for FACS sorting of yeast libraries and immobilised on streptavidin sensors for BLI; also called TNFα; Tumor Necrosis Factor Alpha
T1 sequence (P01375 77-233 limits assumed): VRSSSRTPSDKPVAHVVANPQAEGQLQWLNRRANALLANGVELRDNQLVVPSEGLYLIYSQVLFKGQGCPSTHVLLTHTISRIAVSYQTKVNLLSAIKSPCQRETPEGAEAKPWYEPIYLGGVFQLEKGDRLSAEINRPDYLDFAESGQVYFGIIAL
Briefly: yeast display MACS and FACS sorting on biotinylated TNF alpha, NGS enrichment, CDRH3 library. The text has this:
The second selection phase consists of selecting the mutant by the dissociation speed thereof.
The selection of DMS libraries was done in a single step by FACS on an ARIA III device (Becton Dickinson, Franklin Lakes, United States). […] After washing the cells with PBS 0.1% BSA, they were marked by using an APC coupled antibody directed against the OK domain (Thermo Fisher Scientific, Waltham, United States; dilution 1:100) and a PE coupled streptavidin (Thermo Fisher Scientific, Waltham, United States; dilution 1:100). The selection of libraries was done by means of rectangular sorting window containing 5% of the clones of interest according to the optimal parameters described by Kowalski et al. PLoS One 10, 1-23 (2015)). The selection of de-immunization libraries was done in several steps. […] The libraries underwent different steps of sorting by FACS.
Molecule B1 came in with an Enrichment of 65400.

Turning to B2, the Enrichment was determined as 151000.

For B3, the Enrichment amounted to 448000.

The molecule B4 yielded an Enrichment of 251000.

B5 came in with an Enrichment of 61200.

B6 yielded an Enrichment of 188000.

Turning to B7, the Enrichment was 1.06e+06.

As for B8, the Enrichment worked out at 163000.

In turn, B9 gave an Enrichment of 54100.

Turning to B10, the Enrichment is 122000.

On to B11, for which the Enrichment turned out to be 59400.

For the molecule B12, the Enrichment came out at 110000.

B13 gave an Enrichment of 100000.

B14: the Enrichment was found to be 80800.

As to B15, the Enrichment is 149000.

The molecule B16 gave an Enrichment of 51900.

B17 registered an Enrichment of 105000.

With B18, the Enrichment amounted to 97400.

For the molecule B19, the Enrichment came to 371000.

In the case of B20, the Enrichment was determined as 87100.

In turn, B21 registered an Enrichment of 707000.

The molecule B22 gave an Enrichment of 63500.
